Sequences and labels used below:
B1: TPR t1 (parent)
chain: GACCAAUCUGCCCUCAGAGCUCGAGAACAUCUUCGGAUGCAGAGGAGGCAGGCUUCGGUGGCGCGAUAGCGCCAACGUCCUCAACCUCCAAUGCAUCCCACCACAUGAUGAUGCCUGAAGAGCCUUGGUUUUUUG

Results on 167 variants are retold here after the RNAGym collection of RNA variant scans (doi:10.1073/pnas.2313332121).

Variants of B1 are the subject of the data set. Put plainly: polymerase ribozyme fitness, log enrichment relative to wild type (log ratio); higher = more active; in vitro selection for triplet polymerase activity. Put shortly:
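Genotype fitness is the logarithm of its enrichment divided by wild-type enrichment, using inverse-variance-weighted averages of replicates. That logarithm is base 2. Enrichment was measured by Illumina sequencing of input and output libraries from one triplicate in vitro selection round, with frozen incubation at −7 °C, on PCR-built, transcribed mutant libraries of each subunit of a heterodimeric triplet polymerase ribozyme, retaining genotypes with ≥10 input reads and ≥1 read per output.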
With A18U G19A G39U C115G, the “polymerase ribozyme fitness (log ratio)” value is -3. The result for A18U G71A G93U U131G reads -5.74. The result for A18U U54A C72G reads -2.46; that for A18U G63C C64U C97G G117A, -6.33; that for A18G G57U, -3.92. Regarding A18U C64U, the “polymerase ribozyme fitness (log ratio)” value was -2. The result for G19A A46C U125A reads -3.96; that for A18U C40A, -3.76. Regarding A18U G44U C124U, the “polymerase ribozyme fitness (log ratio)” value was -1.28. The result for A18U G52C G61C U87C G120C reads -4.57; that for A18U G60A C88G A118U U130G, -3.95. Take A18G G19U A46G U59A C79A: the “polymerase ribozyme fitness (log ratio)” value was -4.25. The result for G19A G44C U96A G120C reads -3.85; that for A18U G47U, -3.96. The result for A18U G110U reads -3.52; that for A18G C20U G93U U109A C115A, -5.78.

For A18G C73A U87G, the “polymerase ribozyme fitness (log ratio)” value was -3.89. The result for A18U G45A C73U reads -2.84; that for A18U C72U C85A, -3.5. For G19A A26G U112C A118U, the “polymerase ribozyme fitness (log ratio)” value was -3.63. The result for A18U G77U reads -2.27; that for A18U C70U A121U, -1.34.

Consider A18C U116A, for which the “polymerase ribozyme fitness (log ratio)” value was -3.4. The result for G19C A37U C62G C124U reads -3.51; that for A18G C101U C114U U129A, -5.75; that for A18G G113U G128U U132A, -5.64. Regarding G19A C73U C82U C114A, the “polymerase ribozyme fitness (log ratio)” value was -1.84.

Consider A18U A83U G120A, for which the “polymerase ribozyme fitness (log ratio)” value was -2.42. As for G19A C22A G113C, the “polymerase ribozyme fitness (log ratio)” value is -4.67. The result for A18C U38A C115A U116G C123U U126A reads -4.52; that for A18G A43C C53A G63U, -5.8. The result for A18U C115U reads -2.09; that for A18G G69U, -1.47. The result for G19A G69U G127C reads -2.66; that for A18U A74U U78C A111C, -4.61. Turning to A18U C72U, the “polymerase ribozyme fitness (log ratio)” value is -2.03.

For the variant G19A C62U U78G, the “polymerase ribozyme fitness (log ratio)” value is -3.47. In the case of A18C U21A C72G G93C, the “polymerase ribozyme fitness (log ratio)” value is -4.4. The result for G19A G44U reads -3.1; that for A18U C28A C85G A111U, -4.7; that for G19A G52A G113A G127A, -2.38. The result for A18U A66G U78C A118G U132A reads -3.83; that for A18G C56G G58C C114A, -3.34; that for A18U A50C C70A G71A C123U, -6.84. The result for A18C U131A reads -2.1; that for G19A C85U C114G, -2.91. On to A18G C56G A83U G110C, for which the “polymerase ribozyme fitness (log ratio)” value was -4.59. The result for A18U A26G G71U G120A G127U reads -5.55; that for G19A G35C C53G C114G, -6.59; that for A18G G63C C85U G110U, -3.81. The result for A18C C72G U78C C104A C114G reads -3.63; that for A18G C56U, -2.25; that for A18G A43C U54A, -4.06. The result for A18C G69U C115U reads -1.28; that for A18U U125G, -3.41; that for A18C C89G, -2.48.

G19A C20A A66G G69U U96A: the “polymerase ribozyme fitness (log ratio)” value is -4.02. The result for A18U C40U G113A G117A reads -6; that for A18C U106A, -3.06. The result for A18C G69C U133A reads -4.77; that for G19A C49G C85U A111C, -2.99; that for A18U A37U A41G C64U, -2.4. For A18G G122A, the “polymerase ribozyme fitness (log ratio)” value is -3.35. The result for A18C G77C reads -2.76; that for A18U U21G C79G G93C G107C A108U C123G C124U, -7.63; that for A18U G93C C94U, -3.75. The result for G19A A121C reads -1.3; that for A18U C22U A43G G60A, -6.88; that for A18C C73G C114U, -3.9. Regarding A18U C49A, the “polymerase ribozyme fitness (log ratio)” value is -2.29. The result for A18U C49G reads -3.54; that for A18U G44C U92A A119U C123A, -5.44; that for A18U C88A, -3.06. With A18C U78C, the “polymerase ribozyme fitness (log ratio)” value is -1.87.

In the case of A18G G19A A43C C56U C70U G110A, the “polymerase ribozyme fitness (log ratio)” value is -4.41. The result for A18G C114U reads -3.96; that for A18C C124G G128U, -3.83. Turning to A18C C89G C114A U130A, the “polymerase ribozyme fitness (log ratio)” value is -3.2. The result for A18G C20U A95C reads -1.56; that for A18U G48A U59G G113A G135U, -4.36; that for G19A C101G, -5.15. Regarding G19A G48U G63A U96G C101A G113U, the “polymerase ribozyme fitness (log ratio)” value was -5.6. The result for A18G G44U C86A C104U G120C reads -3.98; that for A18U C62G C82A C114A U131A G135A, -4.32; that for A18C U112G, -3. Turning to A18U C89U, the “polymerase ribozyme fitness (log ratio)” value is -1.53. The result for A18C G113C reads -3.55; that for A18G C62U, -2.68. The result for A18U G61A C123G reads 0.0966. The result for A18U G71A G120A reads -3.53. In the case of A18U A95G, the “polymerase ribozyme fitness (log ratio)” value is -2.21.

In the case of A18U G42A C53G G71C C85U C89A, the “polymerase ribozyme fitness (log ratio)” value was -4.28. The result for G19A C40U U112A reads -0.444. The result for G19A G60A U87A C114G reads -3.18. The result for G19A U78G C80U reads -3.52; that for A18C G71A C88U G93C, -4.58; that for A18U C70U A84G, -6.3. A18C G48U C56U A84G: the “polymerase ribozyme fitness (log ratio)” value was -4.19. The result for A18U G35U G71A A108G C115U reads -6.98; that for A18U G42C A43C G93C, -5.75. The result for G19A C79G U81C reads -3.95; that for G19A G23U U92A G120U C124U, -6.05; that for A18U A37U U78G A84U U87A, -4.45. The result for A18U C73A reads -3.04; that for A18G U54A C62U C88G A111C G113C U125A, -3.53. A18U G48C G71U C82A: the “polymerase ribozyme fitness (log ratio)” value is -5.32.

As to A18G A37G A66U C94U G113C G117A, the “polymerase ribozyme fitness (log ratio)” value is -4.01. The result for A18C G61C U112G reads -6.42. The result for A18U C20G reads -4.36. The result for A18C G47U reads -4.12; that for G19A G42A, -3.26.

In the case of A18C G19A G71U C104U C115A, the “polymerase ribozyme fitness (log ratio)” value is -0.527. The result for A18U C40A G120U C123A U129C reads -4.63; that for A18U G44A, -2.99. The result for A18U G44U reads -2.49; that for A18G A105G U112C G117C U132A, -3.97; that for A18U C94U C101A G110A, -6.65. The result for G19A A41U U81A C82A U112A reads -0.674; that for A18U C40U C94U, -3.46; that for A18U C123U, -1.12.

On to A18G A118G, for which the “polymerase ribozyme fitness (log ratio)” value is -3.1. Consider G19A G120A, for which the “polymerase ribozyme fitness (log ratio)” value is -2.6. A18U G42A U130A: the “polymerase ribozyme fitness (log ratio)” value was -3.41. The result for G19A U87A reads -2.78; that for A18U U78C C88U U112G, -2.16. The result for A18U U21A A24G U55G reads -3.96; that for A18U G57A U106A, -5.57. Take A18U G36U: the “polymerase ribozyme fitness (log ratio)” value was -3.48.

In the case of A18U G36A, the “polymerase ribozyme fitness (log ratio)” value was -3.63. In the case of G19A A74C, the “polymerase ribozyme fitness (log ratio)” value is -3.23. The result for A18G C72A reads -2.98. The result for G19A U54C C73G C82G C114G G135A reads -3.8; that for A18U U67G C101G U116C, -5.12. The result for A18C G48U G57U reads -2.85. With G19C A37G G69U C124G, the “polymerase ribozyme fitness (log ratio)” value is 0.721. In the case of G19A C22G A43C G71A C89A U125A, the “polymerase ribozyme fitness (log ratio)” value was -6.8.

For the variant G19A A41U U78C U132C, the “polymerase ribozyme fitness (log ratio)” value is -4.37.

On to A18C U59A C89U G122A, for which the “polymerase ribozyme fitness (log ratio)” value was -3.38. Regarding A18U A43G, the “polymerase ribozyme fitness (log ratio)” value is -1.5. The result for G19A C70G G113U reads -5.75. The result for A18U U92A reads -4.67; that for A18U G122U, -2.38; that for G19A G69C G110C, -6.61. The result for G19A G60A C101A U106A A119U C123U reads -5; that for A18C G60A C89G U106A, -3.6; that for A18U C124U, -1.01. A18C U87C: the “polymerase ribozyme fitness (log ratio)” value was -2.11. The result for A18G U78C G117U C123A C124G reads -1.41. The result for A18U C49U C102U G117A reads -7.34. The result for A18U C28U reads -5.29; that for A18G C49A C79U G120C G128U, -5.04; that for A18U C85G G113C, -5.2. In the case of A18U A37C C82G U92C U116A A121G, the “polymerase ribozyme fitness (log ratio)” value was -5.42. Take A18C U54G C123G: the “polymerase ribozyme fitness (log ratio)” value was -0.39. Consider A18G U129A, for which the “polymerase ribozyme fitness (log ratio)” value was -4.53. The result for A18G C20G C31A G60C C99A G110U reads -1.91.

As for A18C G42U A46G G47A C86U, the “polymerase ribozyme fitness (log ratio)” value was -2. The result for A18U G69U C115G reads -0.333.

In the case of A18U G60A A90C, the “polymerase ribozyme fitness (log ratio)” value was -1.79. The result for A18C C64U reads -2.61. The result for A18G C82A reads -4.16; that for A18U U38G C123A, -4.13. Consider A18U A121C, for which the “polymerase ribozyme fitness (log ratio)” value was -0.0692. The result for A18C G52A G61A A118G reads -2.74; that for A18U C62U A84C G120U G135U, -5.35. With A18U C56U C64A G69A U112C U129A, the “polymerase ribozyme fitness (log ratio)” value is -5.64.

On to A18U A111C, for which the “polymerase ribozyme fitness (log ratio)” value was -2.74.
